Experimental findings from patent publication US5700659 are described below.

Assay [1] deals with scrambled ribonuclease A from bovine pancreas (bovine) (UniProt P61823).
Assay [2] addresses scrambled egg lysozyme (Gallus gallus (Chicken)) (UniProt P00698).

Chain of UniProt P61823 (P61823 27-150 limits assumed): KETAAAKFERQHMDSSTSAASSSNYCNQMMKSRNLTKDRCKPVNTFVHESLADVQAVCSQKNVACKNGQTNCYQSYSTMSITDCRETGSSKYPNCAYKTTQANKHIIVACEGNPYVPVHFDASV

B1: polypeptide possessing protein disulfide isomerase (PDI) activity from Humicola insolens KASI (FERM BP-4239), purified from fungal cells (Example 2) (enzyme)
chain: SDVVQLKKDTFDDFIKTNDLVLAEFFAPWCGHCKALAPEYEEAATTLKEKNIKLAKVDCTEETDLCQQHGVEGYPTLKVFRGLDNVSPYKGQRKAAAITSYMIKQSLPAVSEVTKDNLEEFKKADKAVLVAYVDASDKASSEVFTQVAEKLRDNYPFGSSSDAALAEAEGVKAPAIVLYKDFDEGKAVFSEKFEVEAIEKFAKTGATPLIGEIGPETYSDYMSAGIPLAYIFAETAEERKELSDKLKPIAEAQRGVINFGTIDAKAFGAHAGNLNLKTDKFPAFAIQEVAKNQKFPFDQEKEITFEAIKAFVDDFVAGKIEPSIKSEPIPEKQEGPVTVVVAKNYNEIVLDDTKDVLIEFYAPWCGHCKALAPKYEELGALYAKSEFKDRVVIAKVDATANDVPDEIQGFPTIKLYPAGAKGQPVTYSGSRTVEDLIKFIAENGKYKAAISEDAEETSSATETTTETATKSEEAAKETATEHDEL
On to B1, for which the Refolding Ratio of Sc-RNase (%) in assay [1] stood at 80%. The reactivation of Sc-lysozyme (lysozyme activity on ethylene glycol chitin, absorbance at 420 nm) in assay [2] was determined as 12%.

B2: recombinant polypeptide possessing PDI activity from E. coli JM105/pTrc99APDI (Example 8) (enzyme)
chain: B1 chain
B2: the Refolding Ratio of Sc-RNase (%) in assay [1] was 82%.
